{"source": "paper PMC10173203", "about": "(Science translational medicine, 2021)", "target": "HA of A/Michigan/45/2015 H1N1 virus (Influenza A virus A/Michigan/45/2015 …, UniProt A0A1J0CXU0, strain)", "assay": "ELISA", "data": [{"binder": "047–09 4B06 mAb (human IgG1) (antibody, V domains shown) VH: EVQLLESGGGLVQPGGSLRLSCAASGFIFGHFAMTWVRQAPGKGLEWLSAISGGGLNTYYAESVKGRFTMSRDNSKNTLYLQMGSLRAEDAAVYYCARFDSSGYNYVRGMVVWGQGTAV VL: DIQMTQSPSSLSVSIGDRITITCQASQDIKNYLGWYQHKPGKAPKLLIYHVSNLEAGVPSRFSGSGSGTDFTFTISSLQPEDIGTYYCHQCYNLPYTFGQGTKVEIK", "values": [{"measurement": "binding result", "result": "binds"}]}]}
